The values that follow come from IntAct's records for PubMed 21320496.

B1: Abl interactor 1 (Homo sapiens), Q8IZP0-4 (parent)
chain: MAELQMLLEEEIPSGKRALIESYQNLTRVADYCENNYIQATDKRKALEETKAYTTQSLASVAYQINALANNVLQLLDIQASQLRRMESSINHISQTVDIHKEKVARREIGILTTNKNTSRTHKIIAPANMERPVRYIRKPIDYTVLDDVGHGVKWLKAKHGNNQPARTGTLSRTNPPTQKPPSPPMSGRGTLGRNTPYKTLEPVKPPTVPNDYMTSPARLGSQHSPGRTASLNQRPRTHSGSSGGSGSRENSGSSSIGIPIAVPTPSPPTIGPAPGSAPGSQYGTMTRQISRHNSTTSSTSSGGYRRTPSVTAQFSAQPHVNGGPLYSQNSIADSPTPPPPPPPDDIPMFDDSPPPPPPPPVDYEDEEAAVVQYNDPYADGDPAWAPKNYIEKVVAIYDYTKDKDDELSFMEGAIIYVIKKNDDGWYEGVCNRVTGLFPGNYVESIMHYTD

In the test the parent is B1. Conditions: with Abl1, P00520-4.
Chain of Abl1, P00520-4 (P00520 other isoform, or with tags, fused parts or gaps): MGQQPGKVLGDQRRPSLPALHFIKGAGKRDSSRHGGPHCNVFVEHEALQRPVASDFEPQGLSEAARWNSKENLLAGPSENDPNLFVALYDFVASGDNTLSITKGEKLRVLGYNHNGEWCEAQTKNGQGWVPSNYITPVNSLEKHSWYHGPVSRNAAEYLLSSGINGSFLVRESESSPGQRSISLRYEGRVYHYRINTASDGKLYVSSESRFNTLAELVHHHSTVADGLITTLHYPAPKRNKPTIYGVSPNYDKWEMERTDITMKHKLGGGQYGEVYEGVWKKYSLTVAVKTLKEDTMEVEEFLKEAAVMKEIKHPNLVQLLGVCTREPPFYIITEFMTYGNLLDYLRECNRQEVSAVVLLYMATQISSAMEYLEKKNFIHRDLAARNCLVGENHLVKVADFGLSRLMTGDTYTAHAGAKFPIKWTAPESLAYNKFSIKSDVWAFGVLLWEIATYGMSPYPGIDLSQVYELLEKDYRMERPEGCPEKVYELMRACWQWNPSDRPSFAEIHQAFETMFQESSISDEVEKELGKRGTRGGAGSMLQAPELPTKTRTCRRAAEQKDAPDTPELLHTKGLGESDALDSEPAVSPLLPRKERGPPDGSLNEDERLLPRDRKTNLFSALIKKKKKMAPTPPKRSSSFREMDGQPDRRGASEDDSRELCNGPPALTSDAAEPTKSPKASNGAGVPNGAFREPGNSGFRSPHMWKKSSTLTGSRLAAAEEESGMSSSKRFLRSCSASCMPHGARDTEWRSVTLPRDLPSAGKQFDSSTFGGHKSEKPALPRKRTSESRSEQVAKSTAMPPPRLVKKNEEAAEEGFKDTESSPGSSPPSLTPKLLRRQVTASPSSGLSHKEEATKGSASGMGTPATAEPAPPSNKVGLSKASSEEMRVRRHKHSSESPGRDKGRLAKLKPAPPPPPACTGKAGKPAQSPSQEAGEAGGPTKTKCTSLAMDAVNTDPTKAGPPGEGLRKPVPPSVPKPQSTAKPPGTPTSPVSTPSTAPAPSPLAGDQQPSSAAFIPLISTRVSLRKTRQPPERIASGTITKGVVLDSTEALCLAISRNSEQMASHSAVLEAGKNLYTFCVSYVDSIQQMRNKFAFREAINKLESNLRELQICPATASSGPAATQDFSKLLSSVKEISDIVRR
Y398F: the “effect of a mutation on the interaction” value is “decreasing interaction”.

As to Y213F, the “effect of a mutation on the interaction” value was “decreasing interaction”.
